Assay [1] has as its target extracellular region of human V158 FcγRIIIa fused with GST (human) (UniProt P08637). Nature of the assay: AlphaScreen competition. A general note: Bead proximity is the source of the signal in Alpha formats.
The target in assay [2] is extracellular region of human F158 FcγRIIIa (human) (UniProt P08637). The assay is described as follows: AlphaScreen competition.
The target is the same in assay [3]. Nature of the assay: SPR.
Assay [4] addresses human FcγRIIIa on human PBMC effector cells (human) (UniProt P08637). The assay is described as follows: cell-based or functional assay.
Assay [5] addresses His-tagged human V158 FcγRIIIa (immobilized on SPR chip) (human) (UniProt P08637). The assay is described as follows: SPR, His-tagged V158 FcγRIIIa immobilized. A general note: SPR reads the build-up and loss of mass on a sensor chip optically.
For assay [6], the target named is extracellular region of human FcγRIIb (human) (UniProt P31994). The assay is described as follows: AlphaScreen competition, trastuzumab context.
Assay [7] has the same target. Nature of the assay: AlphaScreen competition.

pIC50, pKd: −log10 of the molar value.

By pIC50 is commonly meant the negative decadic logarithm of the IC50, by convention in mol/L. A high value points to a small IC50. One may read the pKd as the Kd on a negative log10 scale, so that one unit is a factor of ten. Low readings indicate a high Kd, high ones a low Kd.

Chain of extracellular region of human F158 FcγRIIIa (human) (P08637 17-208): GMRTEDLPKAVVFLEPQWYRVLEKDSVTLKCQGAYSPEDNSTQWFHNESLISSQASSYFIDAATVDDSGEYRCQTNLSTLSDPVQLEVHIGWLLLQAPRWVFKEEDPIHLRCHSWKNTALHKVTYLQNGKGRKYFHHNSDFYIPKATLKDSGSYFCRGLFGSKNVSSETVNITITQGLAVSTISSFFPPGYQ
Chain of His-tagged human V158 FcγRIIIa (immobilized on SPR chip) (human) (P08637 17-208 F176V limits assumed): as the sequence (P08637 17-208) above, with F160V counted along it
Chain of extracellular region of human V158 FcγRIIIa fused with GST (human) (P08637 17-208 F176V): as the sequence (P08637 17-208) above, with F160V counted along it
Chain of extracellular region of human FcγRIIb (human) (P31994 43-217): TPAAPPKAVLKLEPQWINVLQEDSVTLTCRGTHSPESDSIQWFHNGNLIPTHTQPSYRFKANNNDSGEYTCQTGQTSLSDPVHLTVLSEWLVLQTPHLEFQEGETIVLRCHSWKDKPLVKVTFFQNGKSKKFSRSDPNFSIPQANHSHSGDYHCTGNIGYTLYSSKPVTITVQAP

With trastuzumab Fc variant V302I (antibody), the FcγRIIIa Fold in assay [1] is 1.01 fold vs WT.
As for “trastuzumab Fc variant S239D/A330Y/I332E/K326E (antibody)”, the FcγRIIIa Fold in assay [1] is 64.1 fold vs WT.
The substance trastuzumab Fc variant T335R (antibody) came in with a FcγRIIIa Fold in assay [1] of 2.58 fold vs WT.
Take “trastuzumab Fc variant S239D/A330Y/I332E/V240I (antibody)”: in assay [1], the FcγRIIIa Fold worked out at 28 fold vs WT.
As to trastuzumab Fc variant E333H (antibody), in assay [1], the FcγRIIIa Fold worked out at 0.75 fold vs WT.
In assay [2], “alemtuzumab Fc variant V264I/I332E (antibody)” showed a Fold of 15.6 fold vs WT and a pIC50 of 8.96. Further, in assay [1], the FcγRIIIa Fold is 12.5 fold vs WT, the Fold is 12.8 fold vs WT and the negative logarithm of the IC50 (pIC50) is 9.30. In assay [3], the Fold came out at 14 fold vs WT and the pKd was 7.28. Besides, in assay [4], the ADCC EC50 (ng/ml), DoHH-2 targets, PBMCs heterozygous V158/F158 FcγRIIIa is 4 ng/mL and the ADCC Fold Improvement Over WT was 2.5 fold. In assay [5], this substance gave a Fold of 4 fold vs WT and a negative-log Kd (pKd) of 7.77.
In assay [1], “trastuzumab Fc variant S239D/I332E/A330I (antibody)” came in with a FcγRIIIa Fold of 59.1 fold vs WT.
In assay [1], “trastuzumab Fc variant V264I/S298A/I332E (antibody)” came in with a FcγRIIIa Fold of 16.5 fold vs WT.
“trastuzumab Fc variant S239D/A330Y/I332E/L235D (antibody)” gave a FcγRIIIa Fold in assay [1] of 7.04 fold vs WT.
The substance trastuzumab Fc variant K326T (antibody) showed a FcγRIIIa Fold in assay [1] of 1.88 fold vs WT.
Same read-out and setting: with trastuzumab Fc variant E318R (antibody) the figure was 1.06 fold vs WT; with trastuzumab Fc variant K326I (antibody), 1.43 fold vs WT; with trastuzumab Fc variant K274L (antibody), 1.09 fold vs WT.
In assay [1], trastuzumab Fc variant V273I (antibody) yielded a FcγRIIIa Fold of 0.79 fold vs WT.
As for trastuzumab Fc variant T335Y (antibody), the FcγRIIIa Fold in assay [1] was 1.56 fold vs WT.
In the case of “alemtuzumab Fc variant S298A/E333A/K334A (antibody)”, the pKd in assay [3] is 6.81; in assay [5], 7.41.
For the substance trastuzumab Fc variant S239D (antibody), the FcγRIIb Fold in assay [6] was determined as 4.47 fold vs WT.
Substance trastuzumab Fc variant K274R (antibody) had a FcγRIIIa Fold in assay [1] of 1.41 fold vs WT.
Still for that read-out and setting: the figure for trastuzumab Fc variant T335D (antibody) is 2.79 fold vs WT.
As to trastuzumab Fc variant E272Y (antibody), the FcγRIIIa Fold in assay [1] amounted to 8.7 fold vs WT.
As for trastuzumab Fc variant N276R (antibody), the FcγRIIIa Fold in assay [1] came out at 0.66 fold vs WT.
For the substance trastuzumab Fc variant Y278T (antibody), the FcγRIIIa Fold in assay [1] worked out at 1.87 fold vs WT.
Turning to “trastuzumab Fc variant P230A/E233D (antibody)”, the FcγRIIIa Fold in assay [1] is 0.92 fold vs WT.
For the substance trastuzumab Fc variant P230A (antibody), the FcγRIIIa Fold in assay [1] is 1.09 fold vs WT.
Still for that read-out and setting: with trastuzumab Fc variant Y278E (antibody) the figure was 0.9 fold vs WT.
trastuzumab Fc variant N276E (antibody): the FcγRIIIa Fold in assay [1] is 0.87 fold vs WT.
For the substance “trastuzumab Fc variant S239N/A330L/I332E (antibody)”, the FcγRIIIa Fold in assay [1] stood at 12.9 fold vs WT.
Regarding alemtuzumab Fc variant I332E (antibody), the pKd is 7.14 in assay [3] and 7.51 in assay [5].
Regarding trastuzumab Fc variant K274Y (antibody), the FcγRIIIa Fold in assay [1] came out at 1.06 fold vs WT.
Same read-out and setting: the figure for trastuzumab Fc variant E283R (antibody) is 0.67 fold vs WT.
The same measure, in the same setting: the figure for “trastuzumab Fc variant V240I/V266I (antibody)” is 1.72 fold vs WT.
Substance trastuzumab Fc variant V323I (antibody) registered a FcγRIIIa Fold in assay [1] of 0.83 fold vs WT.
In assay [1], trastuzumab Fc variant S324R (antibody) showed a FcγRIIIa Fold of 0.71 fold vs WT.
trastuzumab Fc variant K274T (antibody) gave a FcγRIIIa Fold in assay [1] of 1.41 fold vs WT.
Regarding “trastuzumab Fc variant L234I/L235D (antibody)”, the FcγRIIIa Fold in assay [1] turned out to be 0.07 fold vs WT.
Consider trastuzumab Fc variant E333T (antibody), for which the FcγRIIIa Fold in assay [1] was 0.78 fold vs WT.
In the case of “trastuzumab Fc variant S239D/A330Y/I332E/V264T (antibody)”, the FcγRIIIa Fold in assay [1] is 17.7 fold vs WT.
Regarding trastuzumab Fc variant Y278W (antibody), the FcγRIIIa Fold in assay [1] came out at 0.41 fold vs WT.
In assay [1], “trastuzumab Fc variant S239N/A330Y/I332E (antibody)” had a FcγRIIIa Fold of 14.2 fold vs WT.
As for alemtuzumab Fc variant S298A (antibody), the negative-log Kd (pKd) is 6.55 in assay [3] and 7.28 in assay [5].
As to “alemtuzumab Fc variant S239D/I332E (antibody)”, the FcγRIIIa Fold in assay [1] was determined as 56.1 fold vs WT. In assay [4], the ADCC EC50 (ng/ml), DoHH-2 targets, PBMCs heterozygous V158/F158 FcγRIIIa came to 3 ng/mL and the ADCC Fold Improvement Over WT was found to be 3.3 fold.
Take trastuzumab Fc variant S324I (antibody): the FcγRIIIa Fold in assay [1] came out at 1.15 fold vs WT.
In assay [1], “trastuzumab Fc variant P230A/E233D/I332E (antibody)” had a FcγRIIIa Fold of 1.87 fold vs WT.
For the substance trastuzumab Fc variant F275W (antibody), the FcγRIIIa Fold in assay [1] was 1.11 fold vs WT.
trastuzumab Fc variant S324Y (antibody) showed a FcγRIIIa Fold in assay [1] of 0.98 fold vs WT.
trastuzumab Fc variant N276Y (antibody) displayed a FcγRIIIa Fold in assay [1] of 0.56 fold vs WT.
On to alemtuzumab Fc variant V264I (antibody), for which the values for the pKd in assay [3] and in assay [5] were 6.26 and 7.19, respectively.
Consider trastuzumab Fc variant E233D (antibody), for which the FcγRIIIa Fold in assay [1] amounted to 0.85 fold vs WT.
trastuzumab Fc variant N276S (antibody) yielded a FcγRIIIa Fold in assay [1] of 0.41 fold vs WT.
On to “trastuzumab Fc variant S239D/I332E (antibody)”, for which the FcγRIIb Fold in assay [6] came to 19.7 fold vs WT.
On to “wild type alemtuzumab (Campath), IgG1, expressed in 293T cells (antibody)”, for which the pKd in assay [3] is 6.14; in assay [5] it was 7.17. Also, in assay [4], the ADCC EC50 (ng/ml), DoHH-2 targets, PBMCs heterozygous V158/F158 FcγRIIIa is 9.9 ng/mL.
With alemtuzumab Fc variant W313F (antibody), the FcγRIIIa Fold in assay [1] came out at 0.88 fold vs WT.
Still for that read-out and setting: with trastuzumab Fc variant S324V (antibody) the figure was 117 fold vs WT.
In turn, “trastuzumab Fc variant S239N/S298A/I332E (antibody)” showed a FcγRIIb Fold in assay [7] of 5.15 fold vs WT. The same substance had a FcγRIIIa Fold in assay [1] of 32.1 fold vs WT.
In turn, trastuzumab Fc variant K274E (antibody) showed a FcγRIIIa Fold in assay [1] of 6.11 fold vs WT.
In assay [7], “trastuzumab Fc variant S239D/V264I/I332E (antibody)” showed a FcγRIIb Fold of 14.4 fold vs WT. The same substance showed a FcγRIIIa Fold in assay [1] of 36.6 fold vs WT.
“trastuzumab Fc variant S239D/A330Y/I332E/L234I (antibody)” gave a FcγRIIIa Fold in assay [1] of 22.4 fold vs WT.

(Values after patent publication US20070219133A1.)
